# Laboratory results from US20240109972A1, “ANTIBODY AND TAXANE COMBINATION THERAPY” (Genmab A/S, priority 2020, published 2024).
# Entries after “also recorded” stand apart in the source; their conditions may differ.
# Experiment: GEN1046 Phase I dose escalation, safety and dose finding
# Format: in vivo
# Source text: The recommended phase 2 dose (RP2D) was based on a review of the available safety and dosing information and could be lower than the maximum tolerated dose (MTD).
substance,measurement,setting,value
"GEN1046: PD-L1×4-1BB bispecific antibody: PD-L1-547-FEAL combined with CD137-009-HC7LC2-FEAR (SEQ ID NOs: 1, 5, 21, 19; 8, 12, 22, 20)",Doses administered safely,1Q3W,up to 1200 mg
same,Patients with dose limiting toxicities (DLTs),dose escalation,Six
same,Severity of most adverse events,dose escalation,mild to moderate
same,Treatment-related bilirubin increases or Grade 4 transaminase elevations,dose escalation,No treatment-related bilirubin increases or Grade 4 transaminase elevations were observed
same,Maximum tolerated dose (MTD),"dose escalation, 1Q3W",not reached; also recorded: no MTD was determined
same,Most frequent adverse events,patients receiving GEN1046,"transaminase elevations, followed by hyperthyroidism, fatigue, nausea, asthenia and neutrophil count decrease"
